Laboratory results as given in US8663916B2 (priority 2006, dated 2014).
Read-outs that look alike come from different tables or passages of the source.

B1: Ph-CA1: fusion peptide of colicin Ia with Candida albicans alpha-mating pheromone c-terminal to the colicin Ia; SEQ ID NO:5; from plasmid pCHCCA1 (protein)
chain: DAINFTTEFLKSVSEKYGAKAEQLAREMAGQAKGKKIRNVEEALKTYEKYRADINKKINAKDRAAIAAALESVKLSDISSNLNRFSRGLGYAGKFTSLADWITEFGKAVRTENWRPLFVKTETIIAGNAATALVALVFSILTGSALGIIGYGLLMAVTGALIDESLVEKANKFWGIGFRLYNFGYFEPGK
modifications: Amino acid sequence of Ph-CA1
notes: fusion peptide of colicin Ia with Candida albicans alpha-mating pheromone c-terminal to the colicin Ia; from plasmid pCHCCA1
B2: Ph-CA2: fusion peptide of colicin Ia with Candida albicans alpha-mating pheromone n-terminal to the colicin Ia; SEQ ID NO:7; from plasmid pCHCCA2 (protein)
chain: GFRLYNFGYFEPGKDAINFTTEFLKSVSEKYGAKAEQLAREMAGQAKGKKIRNVEEALKTYEKYRADINKKINAKDRAAIAAALESVKLSDISSNLNRFSRGLGYAGKFTSLADWITEFGKAVRTENWRPLFVKTETIIAGNAATALVALVFSILTGSALGIIGYGLLMAVTGALIDESLVEKANKFWGI
modifications: Amino acid sequence of Ph-CA2
notes: fusion peptide of colicin Ia with Candida albicans alpha-mating pheromone n-terminal to the colicin Ia; from plasmid pCHCCA2

Key:
[1] = tested on: ATCC 10231 C. albicans cells; experiment: cell growth inhibition assay in M-H liquid medium (turbidity, filament sedimentation, microscopy); type: cell-based, Candida albicans; conditions: for spores under microscope: 2 ul treated medium on a slide, Ph-CA1 10 ug/ml, amphotericin B 2 ug/ml, FIG. 5
From the text: FIG. 4 depicts the inhibition effects of Ph-CA against the growth of ATCC 10231 C. albicans cells in M-H liquid medium. The amount of sedimentary fungal filaments at the bottom of flasks indicated the inhibition effects of treatment agents. (A) Control, (B) fluconazole, (C) amphotericin B, (D) Ph-SA, (E) Ph-CA2 produced by pCHCCA2 plasmid and (F) Ph-CA1.
FIG. 5 depicts the inhibition effects of Ph-CA against the growth of C. albicans cells in liquid medium. The amount of spores and filaments of ATCC 10231 C. albicans cells indicated the inhibition effects. (A) Control, (B) fluconazole, (C) amphotericin B, (D) Ph-SA, (E) Ph-CA2 (F) Ph-CA1. X400.
In vitro cell growth inhibition assays were performed in 100 ml Klett flasks containing 10 ml of M-H medium which were monitored turbimetrically with a BioRad 550 microplate reader at OD595 nm every 60 min. The filament (mycelium) precipitation at the bottom of flask was counted with a digital photo-recorder every 6 hrs. Cells were inoculated to an initial cell density of about 2.5×10^5 CFU/ml and shaken at 200 rpm on an orbital shaker at 35° C. Sedimentary fungal filaments appeared in about 36 hrs growing.
Ph-CA1 and Ph-CA2 were added at the start of the culture. The same amount of borate stock solution (50 mM borate, PH9.0), Ph-SA (pheromonicin constructed by colicin Ia and staphylococcal pheromone AgrD1)(10 ug/ml) and several antibiotics preparations (2 ug/ml amphotericin B, 6 ug/ml fluconazole) were used as controls. All assays were expressed in turbidometric absorbance units measured at 595 nm and pictures of the filament sedimentation at the bottom of the flask were taken.

[2] = tested on: Magnaporthe grisea; type: in vivo, rice (seed, gangyou 725); conditions: for Grades of impaired leaves 0 (number of leaves) / Grades of impaired leaves 1 (number of leaves) / Grades of impaired leaves 3 (number of leaves) / Grades of impaired leaves 5 (number of leaves) / Incident rate / Infected index / Protecting efficacy: seven days after treatment, sprayed twice: tricyclazole 0.5 and 1 mg/ml, Ph-CA1 1 and 2 ug/ml, 200 leaves
[3] = tested on: Magnaporthe grisea; type: in vivo, rice (seed, gangyou 725); conditions: sprayed once at head stage: tricyclazole 1 mg/ml, Ph-CA1 2 ug/ml
[4] = tested on: Candida albicans (ATCC 10231); type: cell-based
[5] = tested on: Cryptococcus neoformans (Huaxi 30168 strain); type: cell-based
[6] = tested on: Aspergillus flavus (Huaxi 30255 strain); type: cell-based
[7] = tested on: Magnaporthe grisea (ACCC 30320 strain); type: cell-based; conditions: PDA solid medium; 100 ul Ph-CA1 25 and 50 ug/ml; FIG. 9
[8] = tested on: Fusarium moniforme (ACCC 30133 strain); type: cell-based
[9] = tested on: Cryptococcus neoformans, Aspergillus flavus, Magnaporthe grisea and Fusarium moniforme cells; type: cell-based; conditions: on a molar basis
[10] = tested on: ATCC 10231 C. albicans cells; experiment: fluorescent imaging with FITC/propidium iodide; type: cell-based, Candida albicans; conditions: 10 ug/ml, 24 hrs; 50 nM FITC/600 nM propidium iodide
Protocol: FIG. 6 depicts the fluorescent imaging of ATCC 10231 C. albicans cells treated by Ph-CA1 and stained with 50 nM FITC/600 nM propidium iodide. […] X400.

[11] = tested on: C. albicans (ATCC 10231); experiment: systemic candidiasis in mice, survival; type: in vivo, KungMing mice
Protocol: KungMing mice, half male and half female, weighing 18-22 g were injected intraperitoneally with 0.5 ml of C. albicans (ATCC 10231), 10^8 CFU/ml. One hour after C. albicans injection, mice were injected intraperitoneally with 0.9% saline […] alone as control (n=10) (C), or with amphotericin B (n=10, 1 ug/gm/day) (B), or with Ph-CA1 (n=10, 5 ug/gm/day) (A) daily for 14 days. The number of surviving animals was determined every 24 hours (FIG. 11).
KungMing mice, half male and half female, weighing 18-22 g were injected intraperitoneally with 0.7 ml of C. albicans (ATCC 10231), 10^8 CFU/ml. One hour after C. albicans injection, mice were injected in the tail vein with 0.9% saline alone as control (n=10) (C), or with amphotericin B (n=10, 1 ug/gm) (B), or with Ph-CA1 (n=10, 5 ug/gm) (A). The mice were then injected intraperitoneally with 0.9% saline alone, or with amphotericin B (n=10, 1 ug/gm), or with Ph-CA1 (n=10, 5 ug/gm) each day. The number of surviving animals was determined every 24 hours (FIG. 12).

[12] = repeated intraperitoneal dosing in mice, bodyweight and histology; type: in vivo, KungMing mice; conditions: 200 ug/mouse/day intraperitoneally for 20 days
Protocol: KungMing mice (n=10), half male and half female, weighing 18-22 g were injected intraperitoneally with Ph-CA1 (200 ug/mouse/day) for 20 days. The bodyweight of all mice was increased.

Row | Molecule | spores under microscope [1] | Grades of impaired leaves 0 (number of leaves) [2] | Grades of impaired leaves 1 (number of leaves) [2] | Grades of impaired leaves 3 (number of leaves) [2] | Grades of impaired leaves 5 (number of leaves) [2] | Incident rate [2] | Infected index [2] | Protecting efficacy [2] | Damage rate [3] | Grades of impaired ears 0 (number of ears) [3] | Grades of impaired ears 1 (number of ears) [3] | Grades of impaired ears 3 (number of ears) [3] | Grades of impaired ears 5 (number of ears) [3] | Grades of impaired ears 7 (number of ears) [3] | Grades of impaired ears 9 (number of ears) [3] | Impaired ears rate [3] | Infected index [3] | antifungal effect on Candida albicans in vitro [1] | further results
1 | C[C@@H]1[C@H](O)[C@@H](C)/C=C/C=C/C=C/C=C/C=C/C=C/C=C/[C@H](O[C@@H]2O[C@H](C)[C@@H](O)[C@H](N)[C@@H]2O)C[C@@H]2O[C@](O)(C[C@@H](O)C[C@@H](O)[C@H](O)CC[C@@H](O)C[C@@H](O)CC(=O)O[C@H]1C)C[C@H](O)[C@H]2C(=O)O [amphotericin B, reference compound] | scarcely observed |  |  |  |  |  |  |  |  |  |  |  |  |  |  |  |  |  | effect on growth of C. albicans ([1]; 2 ug/ml, M-H liquid medium): completely inhibited
2 | Cc1cccc2sc3nncn3c12 [Tricyclazole, tricyclazole, reference compound] |  | 172 | 10 | 12 | 6 | 14 | 4.22 | 75.83 | 1.63% | 184 | 16 | 9 | 2 | 2 | 0 | 13.62% | 3.5 |  | 
3 | OC(Cn1cncn1)(Cn1cncn1)c1ccc(F)cc1F [Fluconazole, fluconazole, reference compound] |  |  |  |  |  |  |  |  |  |  |  |  |  |  |  |  |  |  | effect on growth of C. albicans ([1]; 6 ug/ml, M-H liquid medium): no effect
4 | B1 | scarcely observed | 67 | 12 | 13 | 8 | 16.5 | 5.05 | 70.94 | 0.53% | 218 | 19 | 5 | 0 | 0 | 0 | 9.92% | 1.56 | definite antifungal effect | inhibition zone [4]: inhibition-zone; antifungal effects [5]: definite antifungal effects; antifungal effects [6]: definite antifungal effects; antifungal effects [7]: definite antifungal effects; antifungal effects [8]: definite antifungal effects; antifungal effects relative to known antifungal antibiotics [9]: one hundred to one thousand times greater; effect on growth of C. albicans ([1]; 10 ug/ml, M-H liquid medium): completely inhibited; inhibitory effect relative to amphotericin B ([1]; on a molar basis, Ph-CA1 70 kDa, amphotericin B about 0.9 kDa): approximately ten times greater; cell membrane damage (propidium iodide entry, cells stained red) [10]: cells became red; antifungal effect on Candida albicans in vivo ([11]; in vivo): definite antifungal effect; in vivo antifungal activity against systemic candidiasis relative to amphotericin B ([11]; on a molar basis, Ph-CA1 5 ug/gm, amphotericin B 1 ug/gm): at least twenty times greater; bodyweight [12]: increased; microscopic findings in livers, kidneys or spleens ([12]; hematoxylin and eosin): no microscopic evidence of necrosis or inflammation; total effects against rice blast disease relative to tricyclazole ([2]; concentration and molar basis taken together, both in vivo protecting assays (Tables I and II)): 10^4 to 10^5 times; protecting effects relative to tricyclazole ([2]; on a molar basis, both in vivo protecting assays (Tables I and II)): three hundred times greater
5 | B2 |  |  |  |  |  |  |  |  |  |  |  |  |  |  |  |  |  | almost had no effect | inhibition effect relative to that of Ph-CA1 ([1]; 10 ug/ml, M-H liquid medium): about 30%
